In the test the target is Catabolite Repressor Activator protein (Cra), wild-type, untagged (E. coli) (UniProt P0ACP1). In words: BLI. On the technique in general: BLI is a label-free optical method that tracks binding on a fibre tip over time.

Results on 1 substance are retold here after publication PMC10760178.

Sequence of UniProt P0ACP1 (P0ACP1 whole entry): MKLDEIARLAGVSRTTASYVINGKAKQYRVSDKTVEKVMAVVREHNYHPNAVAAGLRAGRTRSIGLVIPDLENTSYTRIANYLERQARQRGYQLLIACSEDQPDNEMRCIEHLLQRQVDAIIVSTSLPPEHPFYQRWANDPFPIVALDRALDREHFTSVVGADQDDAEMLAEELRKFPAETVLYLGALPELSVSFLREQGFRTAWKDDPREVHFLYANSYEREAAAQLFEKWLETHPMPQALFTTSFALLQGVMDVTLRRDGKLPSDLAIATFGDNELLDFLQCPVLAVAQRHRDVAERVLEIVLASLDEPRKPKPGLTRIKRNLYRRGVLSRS

By Kd is commonly meant a measure of binding affinity in units of concentration. As to “His-tagged FruK (pET3a) for BLI (from UniProt P0AEW9 1-312) (enzyme)”, the dissociation constant Kd stood at 2.1 nM.
